Positions count from the first letter of the chain named. Several values for one entry are separate records, joined by “and”; a condition that tells them apart may be missing. Equal values may be shown once.
T1: Fibroblast activation protein alpha (FAP) on DLD1-FAP cells (UniProt Q12884 1-760, limits assumed)
T1 sequence (looked up): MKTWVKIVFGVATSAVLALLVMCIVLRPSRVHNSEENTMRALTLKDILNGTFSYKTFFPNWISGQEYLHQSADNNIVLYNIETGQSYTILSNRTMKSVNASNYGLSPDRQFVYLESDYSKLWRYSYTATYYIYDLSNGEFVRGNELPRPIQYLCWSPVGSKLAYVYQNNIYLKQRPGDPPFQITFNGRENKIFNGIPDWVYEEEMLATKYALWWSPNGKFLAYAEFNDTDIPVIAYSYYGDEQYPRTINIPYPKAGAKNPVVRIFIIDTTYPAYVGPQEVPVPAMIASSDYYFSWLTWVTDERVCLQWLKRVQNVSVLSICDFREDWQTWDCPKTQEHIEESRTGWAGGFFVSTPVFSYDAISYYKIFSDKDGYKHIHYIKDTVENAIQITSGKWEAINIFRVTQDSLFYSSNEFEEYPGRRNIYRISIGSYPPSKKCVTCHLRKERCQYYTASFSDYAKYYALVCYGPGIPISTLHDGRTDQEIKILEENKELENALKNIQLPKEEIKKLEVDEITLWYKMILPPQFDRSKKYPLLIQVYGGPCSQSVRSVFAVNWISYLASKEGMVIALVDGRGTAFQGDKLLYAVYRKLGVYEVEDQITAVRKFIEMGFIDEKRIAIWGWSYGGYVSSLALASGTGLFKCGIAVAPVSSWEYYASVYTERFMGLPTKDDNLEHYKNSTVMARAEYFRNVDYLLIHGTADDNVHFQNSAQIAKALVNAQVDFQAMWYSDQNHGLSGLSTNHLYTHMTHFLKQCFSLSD

B1: h10Ta-wt (bispecific antibody)
light: DIQMTQSPSSLSASVGDRVTITCRASQDIRNYLNWYQQKPGKAPKLLIYYTSRLESGVPSRFSGSGSGTDYTLTISSLQPEDFATYYCQQGNTLPWTFGQGTKVEIKGAPGGGTHTCPPCPAPELLGGPSVFLFPPKPKDTLMISRTPEVTCVVVDVSQEDPEVQFNWYVDGVEVHNAKTKPREEQFNSTYRVVSVLTVLHQDWLNGKEYKCKVSNKGLPSSIEKTISKAKGQPREPQVYTLPPSREEMTKNQVSLSCAVKGFYPSDIAVEWESNGQPENNYKTTPPVLDSDGSFFLVSKLTVDKSRWQQGNVFSCSVMHEALHNHYTQKSLSLSPGK
heavy: EVQLLESGGGLVQPGGSLRLSCAASGFTFSSYAMSWVRQAPGKGLEWVAVIDSNGGSTYYPDTVKDRFTISRDNSKNTLYLQMNSLRAEDTAVYYCSSYTNLGAYWGQGTLVTVSAGGGGSGGGGSGGGGSDIQMTQSPSSLSASVGDRVTITCRASQDISGYLNWLQQKPGKAIKRLIYTTSTLDSGVPSRFSGSGSGTDFTLTISSLQPEDFATYYCLQYASSPFTFGGGTKVEIKPAGGGGGSEVQLVESGGGLVQPGGSLRLSCAASGYSFTGYTMNWVRQAPGKGLEWVALINPYKGVSTYNQKFKDRFTISVDKSKNTAYLQMNSLRAEDTAVYYCARSGYYGDSDWYFDVWGQGTLVTVSSGAPGGGTHTCPPCPAPELLGGPSVFLFPPKPKDTLMISRTPEVTCVVVDVSQEDPEVQFNWYVDGVEVHNAKTKPREEQFNSTYRVVSVLTVLHQDWLNGKEYKCKVSNKGLPSSIEKTISKAKGQPREPQVYTLPPSREEMTKNQVSLWCLVKGFYPSDIAVEWESNGQPENNYKTTPPVLDSDGSFFLYSKLTVDKSRWQQGNVFSCSVMHEALHNHYTQKSLSLSPGK
notes: also called h10Ta with the parental Fv; h10Ta (wt anti-CD3 Fv)
B2: hB2Ta (bispecific antibody)
light: B1 light with R24Q, R30S
heavy: QVQLVQSGAEVKKPGASVKVSCKASGYSFTDYTMNWVRQAPGQGLEWMGVINPNHGISSYAQKFQGRVTMTRDTSTSTVYMELSSLRSEDTAVYYCVRRKISYDYDEGYAMDYWGQGTLVTVSSGGGGSGGGGSGGGGSDIVMTQSPDSLAVSLGERATINCKSSQNLLNSSNQKNYLAWYQQKPGQPPKLLVFFAATRESGVPDRFSGSGSGTDFTLTISSLQAEDVAVYYCQQHYSTPWTFGGGTKLEIKPAGGGGSEVQLVESGGGLVQPGGSLRLSCAASGYSFTGYTMNWVRQAPGKGLEWVALINPYKGVSTYNQKFKDRFTISVDKSKNTAYLQMNSLRAEDTAVYYCARSGYYGDSDWYFDVWGQGTLVTVSSGAPGGGTHTCPPCPAPELLGGPSVFLFPPKPKDTLMISRTPEVTCVVVDVSQEDPEVQFNWYVDGVEVHNAKTKPREEQFNSTYRVVSVLTVLHQDWLNGKEYKCKVSNKGLPSSIEKTISKAKGQPREPQVYTLPPSREEMTKNQVSLWCLVKGFYPSDIAVEWESNGQPENNYKTTPPVLDSDGSFFLYSKLTVDKSRWQQGNVFSCSVMHEALHNHYTQKSLSLSPGK
B3: h10Ta-L4 (bispecific antibody)
light: B1 light with R24Q, R30S
heavy: B1 heavy
notes: also called TriAx-A harboring L4

Key:
CD3 on T cells [1] = target: T2, CD3 on T cells (UniProt P07766 23-207); assay: cell-based or functional assay
T2 sequence (P07766 23-207): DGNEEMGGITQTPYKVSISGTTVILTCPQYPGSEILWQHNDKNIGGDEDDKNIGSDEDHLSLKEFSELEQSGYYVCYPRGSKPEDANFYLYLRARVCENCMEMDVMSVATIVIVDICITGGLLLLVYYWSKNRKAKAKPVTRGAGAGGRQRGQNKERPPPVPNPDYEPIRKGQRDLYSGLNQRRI

CD3 on T cells [2] = target: T2, CD3 on T cells; assay: cell-based or functional assay; remark: listed apart in the source
CD3 on T cells [3] = target: T2, CD3 on T cells; assay: flow cytofluorimetry on peripheral blood T cells, EC50 from MFI, average of three determinations; h10Ta-wt, parental Fv Vk CDR1
Procedure: (§1) The antibody binding to peripheral blood T cells was determined for T cell affinity over a range of concentration as shown in FIG. 8A. MFI were plotted and affinity (EC50) was determined using GraphPad PRISM. Three independent affinity determinations and their averages were indicated. […] Both h10Ta antibodies engaged CDH17 (on DLD1) and CD3. The signaling was determined according to manufacturer's protocol, at 24 hours using an antibody concentration range as indicated and Jurkat reporter cells at 100×10³ and DLD1 cells at 30×10³ per microtiter well (96-well plate). Luciferase expression/activity was measured using a multimode plate reader. […] Controls included no antibody or a CD3, CD28, CD2 agonist (Immunocult; StemCell) to induce maximal stimulation.

CD3 on T cells [4] = target: T2, CD3 on T cells; assay: flow cytofluorimetry on peripheral blood T cells, fit of Median FI against concentration; one of three independent determinations
Procedure: as §1

[5] = target: T1, Fibroblast activation protein alpha …; assay: cell-based or functional assay
CD3 on T cells [6] = target: T2, CD3 on T cells; assay: flow cytofluorimetry on peripheral blood T cells
Procedure: as §1

CD3 on T cells [7] = target: T2, CD3 on T cells; assay: flow cytofluorimetry on peripheral blood T cells, EC50 from MFI, average of three determinations; h10Ta-L4, modified CDRL1
Procedure: as §1

Binder	EC50 for AGS killing in the presence of T cells, 24 hours, E:T 4 (CD3 on T cells [1]) [pM]	EC50 for killing DLD1 in the presence of T cells, 24 hours, E:T 4 (CD3 on T cells [1]) [pM]	EC50 (read off the curve), NFAT-luciferase induction in Jurkat reporter cells with DLD1 cells (CD3 on T cells [2]) [nM]	EC50 (CD3 on T cells [3]) [nM]	Kd (CD3 on T cells [4])	EC50 of tumor cell cytotoxicity, DLD1-FAP cells with T cells, 24 hours, E:T 4 [5] [pM]	fold decrease in T cell signaling, NFAT luciferase Jurkat reporter cells with DLD1 cells, 24 hours (CD3 on T cells [1]) [fold]	fold decrease in T cell affinity relative to the parental Fv (h10Ta-wt) (CD3 on T cells [6]) [fold]	EC50 (CD3 on T cells [7]) [nM]
B1	1.4	0.5	~0.4	60	50 nM and 54 nM and 75 nM				
B2						41			
B3	2	0.4	~0.8		236 nM and 358 nM and 365 nM		2	5	320
